The values that follow come from patent US20150266957A1.

Test in all cases: cell-based or functional assay
Experiment [1] has as its target mouse PROKR1 (mouse (Mus musculus)) (UniProt Q9JKL1).
Experiment [2] addresses cynomolgus monkey PROKR1 (cynomolgus monkey (Macaca fascicularis)) (UniProt G7PMD0).
Experiment [3] addresses rat PROKR1 (rat (Rattus norvegicus)) (UniProt Q8R416).
The next experiment addresses human PROKR1 (human) (UniProt Q8TCW9).

Chain of cynomolgus monkey PROKR1 (cynomolgus monkey (Macaca fascicularis)) (G7PMD0 entry or part of it): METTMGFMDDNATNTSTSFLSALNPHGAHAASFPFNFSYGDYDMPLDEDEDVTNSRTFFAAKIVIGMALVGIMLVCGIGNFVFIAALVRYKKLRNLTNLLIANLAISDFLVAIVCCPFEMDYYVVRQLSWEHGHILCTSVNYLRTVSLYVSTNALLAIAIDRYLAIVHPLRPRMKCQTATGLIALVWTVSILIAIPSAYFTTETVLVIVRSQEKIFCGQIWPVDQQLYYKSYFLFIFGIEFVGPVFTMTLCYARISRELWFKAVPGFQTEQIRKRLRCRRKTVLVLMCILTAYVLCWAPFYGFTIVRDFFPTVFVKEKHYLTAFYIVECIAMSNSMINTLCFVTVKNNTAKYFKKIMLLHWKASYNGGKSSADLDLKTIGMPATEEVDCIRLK
Chain of mouse PROKR1 (mouse (Mus musculus)) (Q9JKL1 whole entry): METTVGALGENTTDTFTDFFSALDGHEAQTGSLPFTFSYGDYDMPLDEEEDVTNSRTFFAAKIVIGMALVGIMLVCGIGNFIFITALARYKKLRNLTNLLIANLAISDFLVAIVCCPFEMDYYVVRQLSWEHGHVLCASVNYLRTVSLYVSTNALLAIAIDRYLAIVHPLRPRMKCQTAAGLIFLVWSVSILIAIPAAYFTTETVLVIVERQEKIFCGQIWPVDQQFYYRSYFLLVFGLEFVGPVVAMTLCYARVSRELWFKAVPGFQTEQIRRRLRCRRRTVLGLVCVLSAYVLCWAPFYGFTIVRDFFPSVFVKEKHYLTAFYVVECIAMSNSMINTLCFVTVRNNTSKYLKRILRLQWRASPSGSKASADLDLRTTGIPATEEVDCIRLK
Chain of human PROKR1 (human) (Q8TCW9 whole entry): as the sequence (G7PMD0 entry or part of it) above, with A22V, A31T, G40S, V82I, I135V, R210K, F246V, N348D, A350V counted along it
Chain of rat PROKR1 (rat (Rattus norvegicus)) (Q8R416 whole entry): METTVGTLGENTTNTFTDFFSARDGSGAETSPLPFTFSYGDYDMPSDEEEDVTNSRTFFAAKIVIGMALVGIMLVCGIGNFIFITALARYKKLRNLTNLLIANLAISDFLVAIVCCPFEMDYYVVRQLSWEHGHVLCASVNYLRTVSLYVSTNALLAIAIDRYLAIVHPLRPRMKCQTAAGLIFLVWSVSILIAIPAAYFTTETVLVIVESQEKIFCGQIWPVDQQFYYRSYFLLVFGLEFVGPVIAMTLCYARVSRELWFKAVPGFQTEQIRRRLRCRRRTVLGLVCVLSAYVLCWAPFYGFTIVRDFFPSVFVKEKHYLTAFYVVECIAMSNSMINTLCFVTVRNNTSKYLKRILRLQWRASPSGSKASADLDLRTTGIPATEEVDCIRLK

B1: human prokineticin 1 (ligand, UniProt P58294 20-105, looked up)
chain: AVITGACERDVQCGAGTCCAISLWLRGLRMCTPLGREGEECHPGSHKVPFFRKRKHHTCPCLPNLLCSRFPDGRYRCSMDLKNINF
For B1, in experiment [1], the EC50, calcium flux, 293/mPROKR1, no antibody worked out at 0.9 nM; the Ligand EC50 (nM), calcium flux, CHO/mPROKR1 (induced) was 1.5 nM; the Ligand EC50 (nM), calcium flux, CHO/mPROKR1 (non-induced) was determined as 8.3 nM. Moreover, in experiment [2], the EC50 (nM), calcium mobilization, 293/mfPROKR1, Experiment 1 was 69 nM and the EC50 (nM), calcium mobilization, 293/mfPROKR1, Experiment 3 stood at 5 nM. In addition, in experiment [3], the EC50, calcium flux, 293/rPROKR1, no antibody was 0.7 nM. Further, in the experiment with human PROKR1 (human), the EC50 (nM), calcium mobilization, 293/hPROKR1, Experiment 1 worked out at 6.2 nM; the EC50 (nM), calcium mobilization, 293/hPROKR1, Experiment 2 was determined as 14.3 nM; the EC50 (nM), calcium mobilization, 293/hPROKR1, Experiment 3 worked out at 2.2 nM.

B2: human prokineticin 2 (ligand, UniProt Q9HC23-2 28-108, looked up)
chain: AVITGACDKDSQCGGGMCCAVSIWVKSIRICTPMGKLGDSCHPLTRKVPFFGRRMHHTCPCLPGLACLRTSFNRFICLAQK
As for B2, in experiment [1], the Ligand EC50 (nM), calcium flux, CHO/mPROKR1 (induced) was determined as 9.6 nM and the Ligand EC50 (nM), calcium flux, CHO/mPROKR1 (non-induced) was 0.8 nM. Further, the EC50 (nM), calcium mobilization, 293/mfPROKR1, Experiment 3 in experiment [2] worked out at 0.1 nM. In the experiment with human PROKR1 (human), the EC50 (nM), calcium mobilization, 293/hPROKR1, Experiment 1 was found to be 30.7 nM and the EC50 (nM), calcium mobilization, 293/hPROKR1, Experiment 3 amounted to 0.6 nM.
